Test results as given in paper PMC3616705 (Nucleic Acids Research, 2013).

B1: Cex1p9-358 (N-terminal kinase-like domain of Cex1p), N-terminal His tag (domain or fragment, Saccharomyces cerevisiae, UniProt Q12453 9-358, looked up)
chain: SISNFQFPYTIEETAITETALWQCFDGTRKADSLPVTVFKAKRSPENESLILNAVHKSKILKIPGLCTVLETFDSDPQSTFIVTERVVPFPWDNLGSLSQNKFGVELGISQLLATLGFLKNFVLGTLSKDSVFINIKGEWVLFGLELCSSKEGLSAFEFASRARSYYNIIGSQLPCEDPNTIDSMGLGLLIKSLMAPSCLPKDWIVNVNMISDGKITIENFRKRLENTETWRSNPLINFYQELRELHIKDPQGKLVVMSNLENLYLESREIFRNLTPGMIENFIIPELCEIIKLLMTQSISSAASPIGMNFNASHKLVPFLAIVLDLTSETNTFPVGFNDLITQSFKLPD
B2: Cex1pΔC-SER (residues 9-564, E535A/K536A/E537A), His tag removed (domain or fragment, Saccharomyces cerevisiae, UniProt Q12453 9-564, looked up)
chain: SISNFQFPYTIEETAITETALWQCFDGTRKADSLPVTVFKAKRSPENESLILNAVHKSKILKIPGLCTVLETFDSDPQSTFIVTERVVPFPWDNLGSLSQNKFGVELGISQLLATLGFLKNFVLGTLSKDSVFINIKGEWVLFGLELCSSKEGLSAFEFASRARSYYNIIGSQLPCEDPNTIDSMGLGLLIKSLMAPSCLPKDWIVNVNMISDGKITIENFRKRLENTETWRSNPLINFYQELRELHIKDPQGKLVVMSNLENLYLESREIFRNLTPGMIENFIIPELCEIIKLLMTQSISSAASPIGMNFNASHKLVPFLAIVLDLTSETNTFPVGFNDLITQSFKLPDRQVRFLLLIYLPKLIGPLSKSEISSRIYPHFIQGLTDSDATLRLQTLKTIPCIVSCLTERQLNNELLRFLAKTQVDSDVEIRTWTVIIISKISTILSTSVGNRSNILATAFTKSLKDPQVKPRLAALYGLEKSIELFDVNTIANKILTVIAPGLLDKSPIVRGRAKILFEEYLEKLAAAAQLIQTNDSTADSEDVKDIDFENYGCD
B3: wild-type, full-length Cex1p (cytoplasmic export protein), N-terminal His tag (natural protein, Saccharomyces cerevisiae, UniProt Q12453 1-761, looked up)
chain: MNFSSIFKSISNFQFPYTIEETAITETALWQCFDGTRKADSLPVTVFKAKRSPENESLILNAVHKSKILKIPGLCTVLETFDSDPQSTFIVTERVVPFPWDNLGSLSQNKFGVELGISQLLATLGFLKNFVLGTLSKDSVFINIKGEWVLFGLELCSSKEGLSAFEFASRARSYYNIIGSQLPCEDPNTIDSMGLGLLIKSLMAPSCLPKDWIVNVNMISDGKITIENFRKRLENTETWRSNPLINFYQELRELHIKDPQGKLVVMSNLENLYLESREIFRNLTPGMIENFIIPELCEIIKLLMTQSISSAASPIGMNFNASHKLVPFLAIVLDLTSETNTFPVGFNDLITQSFKLPDRQVRFLLLIYLPKLIGPLSKSEISSRIYPHFIQGLTDSDATLRLQTLKTIPCIVSCLTERQLNNELLRFLAKTQVDSDVEIRTWTVIIISKISTILSTSVGNRSNILATAFTKSLKDPQVKPRLAALYGLEKSIELFDVNTIANKILTVIAPGLLDKSPIVRGRAKILFEEYLEKLEKEAQLIQTNDSTADSEDVKDIDFENYGCDEEDMNKEDNLLAAQFLNNLRLNSPSATTPSNITESEIDSAQDGSGWDDLSDTDGFITNGTTESFDETTNPVTTASTPKLFGKPIKINKSWNDELNDDGWIQDESGPSKVPQKHTRPQNSTLAKSIAPSSRLSIKKKKTTILAPRNIASNSTVTTKSSLSNKTARSKPISSIRGSVTKKGNVDGWDDDGDSDSWDTNW
B4: Cex1pΔC-SER (residues 9-564, E535A/K536A/E537A) with N-terminal His tag, as used in the pull-down (domain or fragment, Saccharomyces cerevisiae, UniProt Q12453 9-564, looked up)
chain: B2 chain

Target: the molecule itself
Assay: AUC

Row | Binder | stoichiometry N
1 | B1 | 2
2 | B2 | 2
3 | B3 | 2

Target: Los1p·Gsp1p export complex (GST-Los1p together with GST-Gsp1p on glutathione resin) (yeast, UniProt P33418 1-1100; P32835 1-219)
Assay: pull-down

Row | binding result | Binder
4 | binds | B1
5 | binds | B4
6 | binds | B3
